Data from patent US20250179208A1 (ZONHON BIOPHARMA INSTITUTE, published 2025).
Like-named read-outs stand apart in the source and are kept apart here.

Assays:
[1] = target: T1, CD26 on CD26 positive human tumor cells (human, UniProt P27487 1-766); assay: cell-based or functional assay
[2] = target: T1, CD26 on CD26 positive human tumor cells; assay: cell-based or functional assay; remark: listed apart in the source
[3] = target: T1, CD26 on CD26 positive human tumor cells; assay: cell-based or functional assay; remark: listed apart in the source
CD3 protein [4] = target: T2, CD3 protein; assay: BLI (Octet), biotinylated CD3 on SA sensor, antibody 200-1600 nM
T2 chain 1: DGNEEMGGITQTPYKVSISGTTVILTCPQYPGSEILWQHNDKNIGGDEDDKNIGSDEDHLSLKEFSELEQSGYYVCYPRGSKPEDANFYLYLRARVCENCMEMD
T2 chain 2: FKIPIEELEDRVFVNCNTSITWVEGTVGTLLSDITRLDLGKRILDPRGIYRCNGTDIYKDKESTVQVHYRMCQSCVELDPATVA
Method: CD3 protein was biotinylated with EZ-link NHS-PEG12-Biotin. Biotinylated CD3 protein was immobilized to SA biosensor. Equilibrated in 1×Kinetics solution. The CD3 immobilized to SA biosensor was combined with the humanized bispecific antibody solution to be detected. The concentration gradient of humanized bispecific antibody was 200 nM, 400 nM, 800 nM, and 1600 nM. The biosensor was dissociated in 1×Kinetics solution. Fortebio Data Analysis 8.0 software was used for data analysis and affinity constant values were calculated.

[5] = target: T3, CD26 protein (recombinant human CD26) (human, UniProt P27487 29-766, limits assumed); assay: BLI (Octet), biotinylated CD26 on SA sensor, antibody 31.3-500 nM
T3 construct: Amine-coupled, biotinylated or HRP-labeled according to the assay; also called DPP4; rCD26
Method: CD26 protein was biotinylated with EZ-link NHS-PEG12-Biotin. Biotinylated CD26 protein was immobilized to SA biosensor. Equilibrated in 1×Kinetics solution. The CD26 immobilized to SA biosensor was combined with the antibody solution to be detected. The concentration gradients of the antibody solution were 31.3 nM, 62.5 nM, 125 nM, 250 nM, and 500 nM. The biosensor was dissociated in 1×Kinetics solution. Fortebio Data Analysis 8.0 software was used for data analysis and affinity constant values were calculated.

[6] = target: T1, CD26 on CD26 positive human tumor cells; assay: cell-based or functional assay; remark: listed apart in the source
CD3 protein [7] = target: T2, CD3 protein; assay: BLI (Octet QKe), CD3 amine-coupled on AR2G sensor, antibody at 181.8 nM
Method: The affinity of chimeric antibodies to antigen protein CD3 was determined by Fortebio Intermolecular Interaction Octet QKe instrument. First, the amino-coupled biosensor AR2G was activated with EDC/s-NHS, and the activated biosensor AR2G was solidified in CD3 protein solution diluted with 10 mM sodium acetate (pH 5.0) solution. The biosensor solidified with CD3 was quenched in 1M ethanolamine (pH8.5) solution. Then equilibrated in 1× kinetic solution. After equilibration, it was bound to bispecific antibody solution. They were dissociated in 1×kinetic solution. Fortebio Data Analysis 8.0 software was used to analyze the data and calculate the affinity constant value (KD).

[8] = target: T3, CD26 protein (recombinant human CD26); assay: BLI (Octet QKe), CD26 amine-coupled on AR2G sensor, antibody at 181.8 nM
Method: The affinity of the chimeric antibody to the antigen protein CD26 was detected by Fortebio Intermolecular Interaction Octet QKe instrument. First, the amino-coupled biosensor AR2G was activated with EDC/s-NHS, and the activated biosensor AR2G was solidified in CD26 protein solution diluted with 10 mM sodium acetate (pH 5.0) solution. The biosensor solidified with CD26 was quenched in 1M ethanolamine (pH8.5) solution. Then equilibrated in 1× kinetic solution. After equilibration, it was bound to a humanized bispecific antibody solution. It was dissociated in 1× kinetic solution. Fortebio Data Analysis 8.0 software was used to analyze the data and calculate the affinity constant (KD), association rate constant (kon) and dissociation rate constant (kdis). The Response value represents the number of antibody molecules that can bind to the antigen. Kon indicates the binding speed of the antibody to the corresponding receptor. Kdis represents the dissociation speed of antibody from corresponding receptor. NA indicates no valid data.

B1: 19G294 (anti-CD26-CD3 humanized bispecific antibody derived from No. 62 mouse antibody) (bispecific antibody)
chain: DIVMTQSPSSLSVTPGERVSISCRSDKSLLHSNGNTYLYWFLQKPGQSPQVLIYRMSNLASGVPDRFSGSGSGTDFTLTISRVEAEDVGVYYCFQQLEYPYTFGQGTKLEIKGGGGSGGGGSGGGGSEVQLVQSGAELVKPGASVKLSCAASGFNIKDTYIYWVRQAPGQGLEWVGRIEPMNGNTKYDPKFQGRFTMTANTSKNTAYLQLSSLRSEDTAVYYCSRGGWLLLYVMDYWGQGTLVTVSSGGGGSDVQLVQSGAEVKKPGASVKVSCKASGYTFTRYTMHWVRQAPGQGLEWIGYINPSRGYTNYADSVKGRFTITTDKSTSTAYMELSSLRSEDTATYYCARYYDDHYCLDYWGQGTTVTVSSGGGGSGGGGSGGGGSDIVLTQSPATLSLSPGERATLSCRASQSVSYMNWYQQKPGKAPKRWIYDTSKVASGVPARFSGSGSGTDYSLTINSLEAEDAATYYCQQWSSNPLTFGGGTKVEIK
notes: also called 19G294 BiTE
With B1 the “IC50 of antibody mediated PBMC cytotoxicity against 786-0 cells” value [1] was 0.26 ng/mL, the “IC50 of antibody mediated PBMC cytotoxicity against HCC 827 cells” value [1] was 0.546 ng/mL and the “IC50 of antibody mediated PBMC cytotoxicity against NCI-H226 cells” value [1] was 0.752 ng/mL. The “IC50 of antibody mediated PBMC cytotoxicity against NCI-H2052 cells” value [1] was 5.05 ng/mL, the “IC50 of antibody mediated PBMC cytotoxicity against OS-RC-2 cells” value [1] was 0.545 ng/mL and the “IC50 of antibody mediated PBMC cytotoxicity against PC-3 cells” value [1] was 0.22 ng/mL. The “EC50 of antibody mediated cytotoxicity of PBMC against 786-0-LUC cells (luciferase reporter)” value [2] was 2.62 ng/mL, the “EC50 of antibody mediated cytotoxicity of PBMC against A498-LUC cells (luciferase reporter)” value [2] was 3.21 ng/mL and the “EC50 of antibody mediated cytotoxicity of PBMC against 786-0-LUC cells (luciferase reporter)” value [3] was 1.43 ng/mL. The “EC50 of antibody mediated cytotoxicity of PBMC against A498-LUC cells (luciferase reporter)” value [3] was 4.15 ng/mL, the Kd (CD3 protein [4]) was 0.751 nM and the koff (CD3 protein [4]) was 0.000178 s⁻¹. For the same binder, the kon (CD3 protein [4]) was 238000 M⁻¹ s⁻¹, the Kd [5] was 0.914 nM and the koff [5] was 8.45e-05 s⁻¹. It also gave a kon [5] of 92400 M⁻¹ s⁻¹.

B2: YS110 (humanized anti-CD26 full-length IgG antibody) (antibody, V domains shown)
VH: EVQLVESGAGVKQPGGTLRLTCTASGFSLTTYGVHWVRQAPGKGLEWVGVIWGDGRTDYDAAFMSRVTISKDTSKSTVYLQMNSLRAEDTAVYYCMRNRHDWFDYWGQGTTVTVSS
VL: DILLTQSPSSLSATPGERATITCRASQGIRNNLNWYQQKPGQAPRLLIYYSSNLQSGVPSRFSGSGSGTDFTLTISRLQPEDVAAYYCQQSIKLPFTFGSGTKVEIK
For B2, the “cell lysis rate, antibody mediated PBMC cytotoxic effect on 786-0 cells (100 ng/ml, 5 h)” value (from here on “cell lysis rate”) [6] was 56.6%, the “IC50 of antibody mediated PBMC cytotoxicity against 786-0 cells” value [1] was > 100 ng/mL and the “IC50 of antibody mediated PBMC cytotoxicity against NCI-H226 cells” value [1] was > 100 ng/mL. The “IC50 of antibody mediated PBMC cytotoxicity against OS-RC-2 cells” value [1] was > 100 ng/mL and the “IC50 of antibody mediated PBMC cytotoxicity against PC-3 cells” value [1] was > 100 ng/mL.

B3: No. 62 mouse antibody (antibody, V domains shown)
VH: EVQLQQSGAELVKPGASVKLSCTASGFNIKDTYIYWVKQRPGQGLEWIGRIEPMNGNTKYDPKFQGKATMTANTSSNTAYLHLSSLASEDTAVYFCSRGGWLLLYVMDYWGQGTSVTVSS
VL: DIVMTQAAPSVSVTPGESVSISCRSDKSLLHSNGNTYLYWFLQRPGQSPQVLIYRMSNLASGVPDRFSGSGSGTGFTLRVSRVEAEDVGVYYCFQQLEYPYTFGGGTKLEIKR
In the case of B3, the “cell lysis rate” value [6] is reported as 53.1%.

B4: No. 212 mouse antibody (antibody, V domains shown)
VH: EVQLQEAGPSLVKPSQTLSLTCFVTGDSITSGYWHWIRKFPGNKLEYMGYINYSGYTYYNPSLKSRFSITRDTSKNQYYLQLNSVTTEDTATYYCTSERNWGAFAYWGQGTLITVSS
VL: ENVLTQSPAIMSASPGEKVTMTCRASSSVISTYLHWYQQKSGASPKLWIYSTSNLASGVPARFSGSGSGTSYSLTISSVEAEDAATYYCQQFSGYPYTFGGGTKLEIK
B4 was tested, and the “cell lysis rate” value [6] was 11.3%.

B5: 21G587 (19G294 anti-CD26 scFv joined to the WBP3311_2.306.4 anti-CD3 scFv) (bispecific antibody)
chain: EVQLVQSGAELVKPGASVKLSCAASGFNIKDTYIYWVRQAPGQGLEWVGRIEPMNGNTKYDPKFQGRFTMTANTSKNTAYLQLSSLRSEDTAVYYCSRGGWLLLYVMDYWGQGTLVTVSSGGGGSGGGGSGGGGSDIVMTQSPSSLSVTPGERVSISCRSDKSLLHSNGNTYLYWFLQKPGQSPQVLIYRMSNLASGVPDRFSGSGSGTDFTLTISRVEAEDVGVYYCFQQLEYPYTFGQGTKLEIKGGGGSQVQLVQSGAEVKKPGSSVKVSCKASGFAFTDYYIHWVRQAPGQGLEWMGWISPGNVNTKYNENFKGRVTITADKSTSTAYMELSSLRSEDTAVYYCARDGYSLYYFDYWGQGTLVTVSSGGGGSGGGGSGGGGSDIVMTQSPDSLAVSLGERATINCKSSQSLLNSRTRKNYLAWYQQKPGQPPKLLIYWASTRQSGVPDRFSGSGSGTDFTLTISSLQAEDVAVYYCTQSHTLRTFGGGTKVEIK
For B5, the “EC50 of antibody mediated cytotoxicity of PBMC against 786-0-LUC cells (luciferase reporter)” value [3] was 2.49 ng/mL, the “EC50 of antibody mediated cytotoxicity of PBMC against A498-LUC cells (luciferase reporter)” value [3] was 5.4 ng/mL and the Kd (CD3 protein [4]) was 0.683 nM. It also gave a koff (CD3 protein [4]) of 8.71e-05 s⁻¹, a kon (CD3 protein [4]) of 128000 M⁻¹ s⁻¹ and a Kd [5] of 0.352 nM. For the same binder, the koff [5] was 4.01e-05 s⁻¹ and the kon [5] was 114000 M⁻¹ s⁻¹.

B6: 17G61 (anti-CD26-CD3 chimeric bispecific antibody derived from No. 62 mouse antibody) (bispecific antibody)
chain: DIVMTQAAPSVSVTPGESVSISCRSDKSLLHSNGNTYLYWFLQRPGQSPQVLIYRMSNLASGVPDRFSGSGSGTGFTLRVSRVEAEDVGVYYCFQQLEYPYTFGGGTKLEIKGGGGSGGGGSGGGGSEVQLQQSGAELVKPGASVKLSCTASGFNIKDTYIYWVKQRPGQGLEWIGRIEPMNGNTKYDPKFQGKATMTANTSSNTAYLHLSSLASEDTAVYFCSRGGWLLLYVMDYWGQGTSVTVSSGGGGSDVQLVQSGAEVKKPGASVKVSCKASGYTFTRYTMHWVRQAPGQGLEWIGYINPSRGYTNYADSVKGRFTITTDKSTSTAYMELSSLRSEDTATYYCARYYDDHYCLDYWGQGTTVTVSSGGGGSGGGGSGGGGSDIVLTQSPATLSLSPGERATLSCRASQSVSYMNWYQQKPGKAPKRWIYDTSKVASGVPARFSGSGSGTDYSLTINSLEAEDAATYYCQQWSSNPLTFGGGTKVEIK
notes: also called chimeric BiTE
B6 was tested, and the Kd (CD3 protein [7]) was 8.87 nM, the koff (CD3 protein [7]) was 0.00159 s⁻¹ and the kon (CD3 protein [7]) was 179000 M⁻¹ s⁻¹. For the same binder, the Kd [8] was 17.3 nM, the Response [8] was 0.849 and the koff [8] was 0.000331 s⁻¹. For the same binder, the kon [8] was 19100 M⁻¹ s⁻¹.

B7: 17G105 (anti-CD26-CD3 chimeric bispecific antibody derived from No. 72 mouse antibody) (bispecific antibody)
chain: DIVLTQSPASLAVSLGQRATISCRASESVEYYGTSLMQWYQQKPGQPPKLLIYTASNVESGVPVRFSGSGSGTDFSLNIHPVEEDDIAMYFCQQSRKVPYTFGGGTKLEIKGGGGSGGGGSGGGGSQVQLQQSGPELMKPGASVKISCKATGYSFSGFWIEWVKQRPGHGLEWIGEILPGSGASNYHENFKGRATITADTSANTAYMQLRSLTSEDSAVYYCARERYYGSKYFDVWGAGTTVTVSSGGGGSDVQLVQSGAEVKKPGASVKVSCKASGYTFTRYTMHWVRQAPGQGLEWIGYINPSRGYTNYADSVKGRFTITTDKSTSTAYMELSSLRSEDTATYYCARYYDDHYCLDYWGQGTTVTVSSGGGGSGGGGSGGGGSDIVLTQSPATLSLSPGERATLSCRASQSVSYMNWYQQKPGKAPKRWIYDTSKVASGVPARFSGSGSGTDYSLTINSLEAEDAATYYCQQWSSNPLTFGGGTKVEIK
notes: also called chimeric BiTE
B7 was tested, and the Kd (CD3 protein [7]) was 2.18 nM, the koff (CD3 protein [7]) was 0.000672 s⁻¹ and the kon (CD3 protein [7]) was 309000 M⁻¹ s⁻¹. For the same binder, the Kd [8] was 39.3 nM, the Response [8] was 0.498 and the koff [8] was 0.00126 s⁻¹. For the same binder, the kon [8] was 32000 M⁻¹ s⁻¹.
